A short description of this series: label from the status in PepcDB records.
Take “MKVGIIGLGFRLGYLGYVFKAIDSSFDIVGYVDPDPAGLPGLTEKGISAGKAYGSPEELLASEKLDLLMIGSPNHMHLGHIRLGLQAGLKVFCEKPIVTTIAESIELAHLMAKFGHERLMVGLVLRYSPLYKDLRAIQAEGKLGQIVSIEASEHIEPYHGAFFMRDWRRYERYSGSFMLEKCCHDLDLYNGVVGARPERVASFGGRKSFIPANDPAREGINDLELFHRKPSGWMGSDKVFDSDADIIDYQVAIVEYENGVGMNFHTNLNVPDQFRRFAIMGSRGMAEGDFVRGYLDVHEQLTGNKIVENKYAATELSQHYGADEQMASDLLESVRTGLELPVSTLNALEAGILALAMDEARMKKTVVDLRPIWDRFDEALHARAA”: the protein production entry is reported as “failed”.

“MTISRNYDQEIKDTAGHKYAYNFDFDVMHPFMVRAFTPFFRPGNLLELGSFKGDFTSRLQEHFNDITCVEASEEAISHAQGRLKDGITYIHSRFEDAQLPRRYDNIVLTHVLEHIDDPVALLKRINDDWLAEGGRLFLVCPNANAVSRQIAVKMGIISHNSAVTEAEFAHGHRCTYALDTLERDASRAGLQVTYRSGIFFKALANFQWDQILQTDILSKEYLDGCYQLGQQYPDLCASIFLLCEKGINQ”: the protein production result is reported as “not failed”.

As to “MRNMQEKGVSEKEILEELKKYRSLDLKYEDGNIFGSMCSNVLPITRKIVDIFLETNLGDPGLFKGTKLLEEKAVALLGSLLNNKDAYGHIVSGGTEANLMALRCIKNIWREKRRKGLSKNEHPKIIVPITAHFSFEKGREMMDLEYIYAPIKEDYTIDEKFVKDAVEDYDVDGIIGIAGTTELGTIDNIEELSKIAKENNIYIHVDAAFGGLVIPFLDDKYKKKGVNYKFDFSLGVDSITIDPHKMGHCPIPSGGILFKDIGYKRYLDVDAPYLTETRQATILGTRVGFGGACTYAVLRYLGREGQRKIVNECMENTLYLYKKLKENNFKPVIEPILNIVAIEDEDYKEVCKKLRDRGIYVSVCNCVKALRIVVMPHIKREHIDNFIEILNSIKRD”, the protein production result is “not failed”.

Turning to “MTRYALLVRGINVGGKNKVVMAELRQELTNLGLEKVESYINSGNIFFTSIDSKAQLVEKLETFFAVHYPFIQSFSLLSLEDFEAELENLPAWWSRDLARKDFLFYTEGLDVDQVIATVESLELKDEVLYFGKLGIFWGKFSEESYSKTAYHKYLLKVPFYRHITIRNAKTFDKIGQMLKK”, the protein production entry was “not failed”.

As to “MLSIKQLSYALAVSKTLHFRKAADLCHVRQSTLSTGVSELERQLGIKIFERDNKKVLVTPLGREVLDKASNIMLQLEDMAHLDHSCGEP”, the protein production entry is given as “failed”.

Turning to “MLKSIRYLLTIIICLFVGACQHTQDNEEPNSIRKVNLSKAASFNVQLGLGYLKQGDRPRAKKKLLTALEQQPDSADVNAALAYYFEQTKELEQAKKFYHKAITLSQNGGAQLNNYGAFLCRQGDYKNAETYFLKAVKDQNYVHTSGAYENAGLCAMAIPDHDKAILYFTKALNQDPSRKESLYELVKLQSKIGHDKEALELLQKHADLVLNDKVMLALAKDIANRTGQYTLAAEYENSFNKLEQTNNISGVNDEYNSSNG”, the protein production result was “failed”.

As for “NSSKSLEAELVRDRQELIDARKKELKAYMMMGVTAIKPLYDSDVNGSNKQAAKEILKAMRFESDGYFFAYDSQGINTLHAIKPSLEGKNLYDLKDENGVAVIAGLIDASQKGDGFLYFSWHKPTINAQAPKLGYAEYLQKWDWVLGTGIYIDDIDQQVAMQRELRTQELNQHT”, the protein production result is reported as “not failed”.

For “MKRLLFTVISLLFSVSVLAAESSADRIDLTSSTVGYAAIVIFILAYILVMGEEKLHMRKSKPVLVAAGVIWILIGFVYTGDNAVLAEEAFRENLLKFAELMLFLLVAMTYINALEERRLFDALSAWLMKKGFTYRKLFWITGFLAFFISPIADNLTTALLMSAVVMKVAEGNKKFVALCCSSIVIAVNAAGAFSPFGDITTLMVWQSGKVEFTEFLQLFVPALVNYLIPAVIMSFFIENKSPTTLHTEVELKRGALRITFLFLLTVATAVACHIWLHLPPVLGMMMGLGYLQFFGYFLRMTLPGSLARKRAMAAREGDQKRLQQLGGVVPFDVFSRVSRAEWDTLLFFYGIVLCVGGLGFMGYLGLLSESLYGGLDPTIANSILGVVSALVDNIPVMFAVLSMDPEMSTGHWLLITLACCTGGSLLSIGSASGVALMGQARGYYTFMSHLKWTPVIAIGYAASILLHLWLNQATFLS”, the protein production entry is “failed”.

On to “MNKLDGIPIPKTYGPLGNLPLLDKNRVSQSLWKIADEMGPIFQFKFADAIGVFVSSHELVKEVSEESRFDKNMGKGLLKVREFSGDGLFTSWTEEPNWRKAHNILLPSFSQKAMKGYHPMMQDIAVQLIQKWSRLNQDESIDVPDDMTRLTLDTIGLCGFNYRFNSFYREGQHPFIESMVRGLSEAMRQTKRFPLQDKLMIQTKRRFNSDVESMFSLVDRIIADRKQAESESGNDLLSLMLHAKDPETGEKLDDENIRYQIITFLIAGHETTSGLLSFAIYLLLKHPDKLKKAYEEADRVLTDPVPSYKQVQQLKYIRMILNESIRLWPTAPAFSLYAKEETVIGGKYLIPKGQSVTVLIPKLHRDQSVWGEDAEAFRPERFEQMDSIPAHAYKPFGNGQRACIGMQFALHEATLVLGMILQYFDLEDHANYQLKIKESLTLKPDGFTIRVRPRKKEAMTAMPGAQPEENGRQEERPSAPAAENTHGTPLLVLYGSNLGTAEEIAKELAEEAREQGFHSRTAELDQYAGAIPAEGAVIIVTASYNGNPPDCAKEFVNWLEHDQTDDLRGVKYAVFGCGNRSWASTYQRIPRLIDSVLEKKGAQRLHKLGEGDAGDDFEGQFESWKYDLWPLLRTEFSLAEPEPNQTETDRQALSVEFVNAPAASPLAKAYQVFTAKISANRELQCEKSGRSTRHIEISLPEGAAYQEGDHLGVLPQNSEVLIGRVFQRFGLNGNEQILISGRNQASHLPLERPVHVKDLFQHCVELQEPATRAQIRELAAHTVCPPHQRELEDLLKDDVYKDQVLNKRLTMLDLLEQYPACELPFARFLALLPPLKPRYYSISSSPQLNPRQTSITVSVVSGPALSGRGHYKGVASNYLAGLEPGDAISCFIREPQSGFRLPEDPETPVIMVGPGTGIAPYRGFLQARRIQRDAGVKLGEAHLYFGCRRPNEDFLYRDELEQAEKDGIVHLHTAFSRLEGRPKTYVQDLLREDAALLIHLLNEGGRLYVCGDGSRMAPAVEQALCEAYRIVQGASREESQSWLSALLEEGRYAKDVWDGGVSQHNVKADCIART”, for which the protein production result is “failed”.

For “MQRGDISMTKRKDIHFRIEEKLLERFESALHYEGLKKTDVLTHAIQQFCMKVEYEKMNDVKRQYSVSNNLQTRIDTHKHYEEKQVNLDEIVIEHLQLQGRERILEVGCANGKFLSLLQANGHKGQLTGFDQSEAMLSEATKTNNLIEWRLGDAGKLPFEANYYDLIVARHMLYHMKDVEKTIQGFHKVIHPGGSLLATTNSNVTLPRIVEMCNRMLDTFDLPKTTSSVTPFCLENGKEILQSVFPTVEVSVIHNALVFHHATPIVNYISSMFPSLNIPDNTLLHAEMKDWLKEEVENELLLHNGIWRDPKTLAIYRCQKEKS”, the protein production entry was “failed”.

On to “MTDQVFGKVSKVVCVGAGYVGGPTCAMIAHKCPHITVTVVDMNTAKIAEWNSDKLPIYEPGLDEIVFAARGRNLFFSSDIPKAIAEADLIFISVNTPTKMYGRGKGMAPDLKYVESVSRTIAQYAGGPKIVVEKSTVPVKAAESIGCILREAQKNNENLKFQVLSNPEFLAEGTAMKDLANPDRVLIGGESSPEGLQAVAELVRIYENWVPRNRIITTNTWSSELSKLVANAFLAQRISSINSISAVCEATGAEISEVAHAVGYDTRIGSKFLQASVGFGGSCFQKDVLSLVYLCESLNLPQVADYWQGVININNWQRRRFADKIIAELFNTVTDKKIAIFGFAFKKNTGDTRESSAIHVIKHLMEEHAKLSVYDPKVQKSQMLNDLASVTSAQDVERLITVESDPYAAARGAHAIVVLTEWDEFVELNYSQIHNDMQHPAAIFDGRLILDQKALREIGFRTFAIGTSPDQAYNLFGTAGY”, for which the protein production entry is “not failed”.

As for “MKKYSTIPTPCYVLESERLEKNAKILEIVRQQSGAKVLLALKGYAFWREFGILRQKLNGCCASGLYEAKLAFEEFGGRESHKEICVYSPAFKEAEMSAILPLATSIIFNSFYQYATYKDRILDKNKQLENLGLSPIKMGLRINPLYSEVTPAIYNPCSKVSRLGITPSGFEKGVKEHGLEGVSGLHFHTHCEQNADALCRTLEHVEKHFRPYLENMAWVNFGGGHHITKSDYDVNLLIQTIKDFKERYHNIEVILEPGEAIGWQCGFLIASVIDIVQNDQEIAILDASFSAHMPDCLEMPYRPSIFKVSVENDEELIEVEKGENQGAFSYFLGGPTCLAGDFMGSFSFETPLKRGDKIVFQDMLHYTIVKNNSFNGVPLPSLARLDQQGFKILKNFSYEDYKNRN”, the protein production entry is reported as “failed”.

Source of the values: a protein production outcome set (Wang et al. 2014).
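Also: failed if final PepcDB status was selected cloned or expressed and not failed if soluble or beyond.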
